# In publication PMC4398322, “Snake neurotoxin α-bungarotoxin is an antagonist at native GABAA receptors” (Neuropharmacology, 2015):
# Key:
# α4β2γ2 GABAAR = target: T1, α4β2γ2 GABAAR (Mus musculus, UniProt P22723+P63137+Q9D6F4); test: α-Bgtx-AF555 cell surface staining of transfected HEK-293 cells; format: binding, murine; details: 400 nM α-Bgtx-AF555, 10 min RT; n = 6; not significant vs eGFP alone
# T1 construct: expressed in transfected cells; host or cells: HEK-293
# Experimental: (§1) Murine GABAAR α1-6, β1-3, γ2 and δ cDNAs subcloned into pRK-5 and pEGFP-C1 have been described previously ([Mortensen et al., 2011]).
# (§2) HEK-293 cells were maintained at 37 °C in a humidified 95% air/5% CO2 atmosphere in Dulbecco's modified Eagle's medium (DMEM) supplemented with 10% (v/v) fetal calf serum (FCS), penicillin-G and streptomycin (100 units/ml and 100 μg/ml), 2 mM L-glutamine. Cells were plated onto 22 mm glass coverslips (VWR), coated with poly-L-lysine (Sigma). All media components were from Life Technologies unless otherwise stated.
# (§3) Cells were transfected with equimolar ratios of cDNAs encoding for α1–6, β1–3 and δ or γ2 GABAA receptor subunits along with eGFP using a calcium phosphate method ([Mortensen et al., 2011]) 15–45 min after plating.
# (§4) Live transfected HEK-293 cells were studied 48 h after transfection and washed with Krebs to remove cell culture media and incubated in 400 nM α-Bgtx coupled with Alexa Fluor 555 (α-Bgtx-AF555; Life Technologies) for 10 min at room temperature (RT). Cells were washed and fixed in 4% paraformaldehyde (PFA; Sigma) for 10 min at RT. The cells were imaged immediately post-fixation in saline using a Zeiss LSM 510 Meta confocal microscope and an Achroplan x40 water DIC objective (NA 0.8) as described previously ([Hannan et al., 2012]). This involved choosing the optimal z-section and acquiring images as a mean of 4 scans in 16-bits using a 543 nm Helium–Neon laser and a 560 nm long-pass filter for α-Bgtx-AF555 and a 488 Argon laser with a 505–530 nm band-pass filter for eGFP.
# (§5) Confocal images were analysed using ImageJ (version 1.410) as described previously ([Hannan et al., 2013]). For each cell the surface membrane was identified by drawing a region-of-interest (ROI) in the eGFP channel and this was transferred to the α-Bgtx-AF555 channel and the mean membrane fluorescence values were determined. Mean background fluorescence was determined from a region devoid of cells. This was subtracted from the mean membrane fluorescence providing a mean corrected fluorescence intensity value. These values, for different combinations of receptors and drugs, were graphically plotted using Origin.
# [1] = system: Receptors containing α3/5/6 subunits and β1/2γ2; test: as above; format: binding, murine; details: 400 nM, 10 min RT; P > 0.05
# Experimental: as §1, §2, §3, §4, §5
# α4β1γ2 GABAAR = target: T2, α4β1γ2 GABAAR (Mus musculus, UniProt P22723+P50571+Q9D6F4); test: as above; format: binding, murine; details: 400 nM α-Bgtx-AF555, 10 min RT; n = 6; not significant vs eGFP alone
# T2 construct: expressed in transfected cells; host or cells: HEK-293
# T2 sequence (P50571 26-474): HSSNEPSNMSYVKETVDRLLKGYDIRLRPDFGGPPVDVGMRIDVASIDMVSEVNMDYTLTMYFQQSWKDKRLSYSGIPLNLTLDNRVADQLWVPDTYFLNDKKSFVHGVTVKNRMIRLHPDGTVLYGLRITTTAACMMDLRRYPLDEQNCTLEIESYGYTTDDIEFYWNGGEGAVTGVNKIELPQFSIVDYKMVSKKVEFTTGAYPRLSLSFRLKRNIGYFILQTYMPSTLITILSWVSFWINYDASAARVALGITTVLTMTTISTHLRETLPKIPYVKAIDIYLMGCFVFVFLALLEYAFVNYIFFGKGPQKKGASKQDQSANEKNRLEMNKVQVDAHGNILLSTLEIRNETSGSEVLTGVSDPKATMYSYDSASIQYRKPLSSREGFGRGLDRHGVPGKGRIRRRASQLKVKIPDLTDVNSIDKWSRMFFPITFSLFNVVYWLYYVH
# T2 sequence (P22723 39-474): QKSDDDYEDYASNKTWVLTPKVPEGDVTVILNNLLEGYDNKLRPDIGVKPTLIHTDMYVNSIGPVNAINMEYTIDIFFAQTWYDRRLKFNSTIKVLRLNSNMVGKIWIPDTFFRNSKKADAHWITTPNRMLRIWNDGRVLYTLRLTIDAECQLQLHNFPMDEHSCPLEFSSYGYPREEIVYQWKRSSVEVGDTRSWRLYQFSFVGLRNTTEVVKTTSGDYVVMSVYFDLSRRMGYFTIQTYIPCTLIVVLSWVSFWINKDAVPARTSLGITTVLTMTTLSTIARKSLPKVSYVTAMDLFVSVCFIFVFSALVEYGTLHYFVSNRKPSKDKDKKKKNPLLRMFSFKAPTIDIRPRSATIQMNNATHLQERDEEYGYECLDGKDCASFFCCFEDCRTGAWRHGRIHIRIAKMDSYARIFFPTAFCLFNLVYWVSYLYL
# T2 sequence (Q9D6F4 36-552): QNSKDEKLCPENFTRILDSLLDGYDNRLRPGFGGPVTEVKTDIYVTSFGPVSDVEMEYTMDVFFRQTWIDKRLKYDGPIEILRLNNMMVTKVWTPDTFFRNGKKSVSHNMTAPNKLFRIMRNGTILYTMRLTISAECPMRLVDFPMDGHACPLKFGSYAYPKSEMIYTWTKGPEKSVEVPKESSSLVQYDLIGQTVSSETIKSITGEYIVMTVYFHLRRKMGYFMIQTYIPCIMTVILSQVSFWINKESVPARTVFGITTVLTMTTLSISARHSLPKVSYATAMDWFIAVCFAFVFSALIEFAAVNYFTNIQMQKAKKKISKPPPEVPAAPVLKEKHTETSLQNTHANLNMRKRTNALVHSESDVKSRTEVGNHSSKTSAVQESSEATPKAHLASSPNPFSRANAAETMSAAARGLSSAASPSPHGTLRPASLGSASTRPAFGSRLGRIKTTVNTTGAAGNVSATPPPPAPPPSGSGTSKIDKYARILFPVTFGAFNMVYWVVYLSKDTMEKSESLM
# Experimental: as §1, §2, §3, §4, §5
# α1β2γ2 GABAAR = target: T3, α1β2γ2 GABAAR (Mus musculus, UniProt P22723+P62812+P63137); test: as above; format: binding, murine; details: 400 nM α-Bgtx-AF555, 10 min RT; n = 6
# T3 construct: expressed in transfected cells; host or cells: HEK-293
# T3 sequence (P63137 25-512): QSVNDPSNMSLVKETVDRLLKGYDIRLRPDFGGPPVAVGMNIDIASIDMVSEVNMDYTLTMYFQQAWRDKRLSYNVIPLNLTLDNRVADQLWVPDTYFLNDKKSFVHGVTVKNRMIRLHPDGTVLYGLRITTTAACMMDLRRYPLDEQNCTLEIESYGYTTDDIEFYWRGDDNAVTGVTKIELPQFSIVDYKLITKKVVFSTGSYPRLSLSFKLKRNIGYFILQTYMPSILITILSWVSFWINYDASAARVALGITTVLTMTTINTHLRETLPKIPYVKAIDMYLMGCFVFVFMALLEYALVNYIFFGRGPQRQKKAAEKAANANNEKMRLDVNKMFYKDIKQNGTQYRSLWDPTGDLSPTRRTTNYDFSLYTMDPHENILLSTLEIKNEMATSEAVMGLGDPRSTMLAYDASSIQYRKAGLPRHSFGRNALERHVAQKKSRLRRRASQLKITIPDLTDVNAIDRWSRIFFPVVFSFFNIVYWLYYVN
# T3 sequence (P22723 39-474): as the sequence (P22723 39-474) above
# T3 sequence (P62812 28-455): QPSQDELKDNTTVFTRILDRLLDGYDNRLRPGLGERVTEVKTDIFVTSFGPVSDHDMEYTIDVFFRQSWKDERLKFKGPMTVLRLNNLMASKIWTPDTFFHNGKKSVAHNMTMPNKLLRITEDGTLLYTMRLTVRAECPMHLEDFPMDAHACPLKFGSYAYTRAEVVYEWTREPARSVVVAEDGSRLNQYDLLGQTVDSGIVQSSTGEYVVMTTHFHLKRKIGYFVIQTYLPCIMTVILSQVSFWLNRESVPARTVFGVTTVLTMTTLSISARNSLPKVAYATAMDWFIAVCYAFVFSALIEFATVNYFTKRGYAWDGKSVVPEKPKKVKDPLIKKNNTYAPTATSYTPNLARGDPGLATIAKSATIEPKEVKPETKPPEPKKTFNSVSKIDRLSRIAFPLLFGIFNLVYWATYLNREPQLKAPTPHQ
# Experimental: as §1, §2, §3, §4, §5
# α1β1γ2 GABAAR = target: T4, α1β1γ2 GABAAR (Mus musculus, UniProt P22723+P50571+P62812); test: as above; format: binding, murine; details: 400 nM α-Bgtx-AF555, 10 min RT; n = 6
# T4 construct: expressed in transfected cells; host or cells: HEK-293
# T4 sequence (P62812 28-455): as above
# T4 sequence (P50571 26-474): as the sequence (P50571 26-474) above
# T4 sequence (P22723 39-474): as the sequence (P22723 39-474) above
# Experimental: as §1, §2, §3, §4, §5
# α2β1γ2 GABAAR = target: T5, α2β1γ2 GABAAR (Mus musculus, UniProt P22723+P26048+P50571); test: as above; format: binding, murine; details: 400 nM α-Bgtx-AF555, 10 min RT; n = 6
# T5 construct: expressed in transfected cells; host or cells: HEK-293
# T5 sequence (P22723 39-474): as above
# T5 sequence (P50571 26-474): as the sequence (P50571 26-474) above
# T5 sequence (P26048 29-451): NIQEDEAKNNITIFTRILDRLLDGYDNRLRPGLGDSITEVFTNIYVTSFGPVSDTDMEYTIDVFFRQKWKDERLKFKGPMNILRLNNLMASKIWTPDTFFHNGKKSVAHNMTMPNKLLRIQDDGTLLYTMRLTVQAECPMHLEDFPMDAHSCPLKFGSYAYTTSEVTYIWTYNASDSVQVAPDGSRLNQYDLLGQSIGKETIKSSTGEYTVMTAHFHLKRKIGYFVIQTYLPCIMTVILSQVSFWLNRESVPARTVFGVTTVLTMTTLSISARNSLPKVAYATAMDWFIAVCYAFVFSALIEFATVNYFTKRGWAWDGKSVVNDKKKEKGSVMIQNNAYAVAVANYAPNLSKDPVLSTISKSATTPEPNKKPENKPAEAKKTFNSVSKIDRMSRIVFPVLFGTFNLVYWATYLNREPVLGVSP
# Experimental: as §1, §2, §3, §4, §5
# α2β2γ2 GABAAR = target: T6, α2β2γ2 GABAAR (Mus musculus, UniProt P22723+P26048+P63137); test: as above; format: binding, murine; details: 400 nM α-Bgtx-AF555, 10 min RT; n = 6
# T6 construct: expressed in transfected cells; host or cells: HEK-293
# T6 sequence (P63137 25-512): as the sequence (P63137 25-512) above
# T6 sequence (P26048 29-451): as the sequence (P26048 29-451) above
# T6 sequence (P22723 39-474): as the sequence (P22723 39-474) above
# Experimental: as §1, §2, §3, §4, §5
# [2] = system: E18 rat hippocampal cultured neurons; test: Live cell confocal microscopy of fluorescent α-Bgtx binding to cultured hippocampal neurons; details: 400 nM; untransfected neurons
# Experimental: Dissociated hippocampal neurons were prepared from embryonic day 18 rat pups as described ([Hannan et al., 2012]). Briefly, hippocampi were dissected in ice-cold Hank's Balanced Salt Solution (HBSS) (Ca^2+/Mg^2+ free) before enzymatic dissociation in 0.1% (w/v) trypsin at 37 °C for 10 min followed by serial washes in pre-warmed HBSS to remove trypsin prior to trituration. Cells were mechanically dissociated using fire-polished glass Pasteur pipettes in plating medium composed of minimal essential medium (MEM) supplemented with 5% (v/v) fetal calf serum (FCS), 5% (v/v) horse serum, penicillin-G and streptomycin (200 units/ml and 200 μg/ml), 2 mM L-glutamine and 35 mM glucose. Cells were plated at a density of 10^6 per ml in plating medium on glass cover-slips previously coated with poly-D-lysine. The neurons were grown and maintained at 37 °C in a humidified 95% air/5% CO2 atmosphere.
# In addition, low concentrations of fluorophore-conjugated α-Bgtx can also be used to avoid labelling of GABAARs as the affinity of α-Bgtx for endogenous GABAARs is lower compared to that for the BBS. […] Similarly, the over-expression of recombinant receptors in heterologous expression systems (HEK-293 cells) allows the detection of α-Bgtx fluorescence at low concentrations.
# [3] = system: HEK-293 cells expressing only eGFP; test: α-Bgtx-AF555 cell surface staining of HEK-293 cells expressing only eGFP; format: binding; details: 400 nM α-Bgtx-AF555, 10 min RT, n = 6
# Experimental: as §2, §3
# Live transfected HEK-293 cells were studied 48 h after transfection and washed with Krebs to remove cell culture media and incubated in 400 nM α-Bgtx coupled with Alexa Fluor 555 (α-Bgtx-AF555; Life Technologies) for 10 min at room temperature (RT). […]
# as §5, with “These values, for different combinations of receptors and drugs, were graphically plotted using Origin.” left out
# β1 homomers = target: T7, β1 homomers (Mus musculus, UniProt P50571); test: α-Bgtx-AF555 staining of HEK-293 cells expressing β homomers, with or without permeabilisation; format: binding, murine; details: 400 nM α-Bgtx-AF555, with or without permeabilisation
# T7 construct: expressed in transfected cells; host or cells: HEK-293
# T7 sequence (P50571 26-474): as the sequence (P50571 26-474) above
# Experimental: as §1, §3, §4
# (§6) In experiments using permeabilisation, cells were fixed in 4% PFA for 10 min at RT followed by washes (x3) in phosphate buffered saline (PBS; Sigma) and 0.1% triton-X100 (Sigma) was added for 10 min at RT in 10% (v/v) FCS. Cells were washed to remove the detergent and 400 nM α-Bgtx-AF555 was added for 10 min at RT to label intracellular receptors.
# as §5
# β2 homomers = target: T8, β2 homomers (Mus musculus, UniProt P63137); test: as above; format: binding, murine; details: 400 nM α-Bgtx-AF555, with or without permeabilisation
# T8 construct: expressed in transfected cells; host or cells: HEK-293
# T8 sequence (P63137 25-512): as the sequence (P63137 25-512) above
# Experimental: as §1, §3, §4, §6, §5
# β3 homomers = target: T9, β3 homomers (Mus musculus, UniProt P63080); test: as above; format: binding, murine; details: 400 nM α-Bgtx-AF555, with or without permeabilisation
# T9 construct: expressed in transfected cells; host or cells: HEK-293
# T9 sequence (P63080 26-473): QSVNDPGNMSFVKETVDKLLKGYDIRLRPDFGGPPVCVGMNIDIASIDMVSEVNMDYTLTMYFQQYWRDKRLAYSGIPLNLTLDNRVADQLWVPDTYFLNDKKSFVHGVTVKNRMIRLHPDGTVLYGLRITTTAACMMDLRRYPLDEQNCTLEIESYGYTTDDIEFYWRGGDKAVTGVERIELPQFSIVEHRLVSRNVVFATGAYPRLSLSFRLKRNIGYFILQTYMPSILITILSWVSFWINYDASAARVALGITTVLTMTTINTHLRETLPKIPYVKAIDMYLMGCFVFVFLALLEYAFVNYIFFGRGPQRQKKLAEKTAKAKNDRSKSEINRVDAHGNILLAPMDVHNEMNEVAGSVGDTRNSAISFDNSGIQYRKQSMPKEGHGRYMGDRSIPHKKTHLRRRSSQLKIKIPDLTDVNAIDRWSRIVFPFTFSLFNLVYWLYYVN
# Experimental: as §1, §3, §4, §6, §5
# T1 sequence (P63137 25-512): as the sequence (P63137 25-512) above
# T1 sequence (P22723 39-474): as the sequence (P22723 39-474) above
# T1 sequence (Q9D6F4 36-552): as the sequence (Q9D6F4 36-552) above
substance,measurement,setting,value
α-Bgtx-AF555: α-Bgtx coupled to Alexa-Fluor 555 (Life Technologies),staining intensity (cell surface fluorescence),α4β2γ2 GABAAR,64 ± 56 a.u.
same,labelling with α-BgTx-AF555,[1],did not show any labelling
same,staining intensity (cell surface fluorescence),α4β1γ2 GABAAR,90 ± 64 a.u.
same,staining intensity (cell surface fluorescence),α1β2γ2 GABAAR,324 ± 33 a.u.
same,staining intensity (cell surface fluorescence),α1β1γ2 GABAAR,592 ± 46 a.u.
same,mean cell surface fluorescence intensity,α2β1γ2 GABAAR,1057 ± 64 a.u.
same,mean cell surface fluorescence intensity,α2β2γ2 GABAAR,1294 a.u.
same,binding of fluorescent α-Bgtx,[2],do not observe any binding
same,mean cell surface fluorescence intensity,[3],9 ± 4 a.u.
same,cell surface and intracellular staining,β1 homomers,absent
same,cell surface and intracellular staining,β2 homomers,absent
same,cell surface and intracellular staining,β3 homomers,high levels of cell surface and intracellular staining
